Measured values: patent US20240209089A1
Where a chain is given by its changes, count along the chain named.

B1: phage clone No. 20 (C20) (VHH)
VHH: QVQLVESGGGLVQPGGSLRLSCAASGSIFSINTMGWYRQAPGKQRELVATMHSTGSTNYADSVKGRFTISRDNAKKTVYLQMNSLEPDDTAVYYCHVDDTGWGTVDSWGQGTQVTVS
B2: phage clone No. 37 (C37) (VHH)
VHH: QLQLVESGGGLVQAGGSLRLSCAASGLTFEDYAIGWFRQAPGKEREGISCIRIYDGNTYSAESVKGRFTISSDNAKNQVYLQINTLKPEDTAVYYCAAGSYYSCSVYPDYDMDYWGKGTLVTVSS
B3: phage clone No. 42 (C42) (VHH)
VHH: B2 VHH with L2V
B4: phage clone No. 2 (C2) (VHH)
VHH: B2 VHH with L2V, A14P, L27F, F29L, E30D, D31Y
B5: phage clone No. 24 (C24) (VHH)
VHH: QVQLVESGGGLVQPGGSLRLSCAASGPIFSINTMGWYRQAPGKQRELVATMHSTGSTNYADSVKGRFTISRDNAKKTVYLQMNSLKPDDTAVYYCHVDDTGWGTVDSWGQGIQVTVSS
B6: phage clone No. 70 (S22) (VHH)
VHH: B5 VHH with V2L, P27S, T100M, I112T
B7: phage clone No. 30 (C30) (VHH)
VHH: B5 VHH with A23V, P27S, S30A, T50D, T77K, T100R, I112T
B8: phage clone No. 61 (S13) (VHH)
VHH: B5 VHH with V2L, A23V, A24V, P27S, S30A, T54Y, D88A, V97A, I112T
B9: phage clone No. 45 (C45) (VHH)
VHH: B5 VHH with A40V, I112T
B10: phage clone No. 66 (S18) (VHH)
VHH: QLQLVESGGGLVQPGGSLRLSCAASGSIFSINTMGWYRQAPGKQRELVATMTSHGSTNYADSVKGRFTISRDNSKNTVYLQMNSLKLQDTAVYYCNANDMGWGTVDAWGQGTLVTVSS
B11: phage clone No. 53 (S5) (VHH)
VHH: QVQLVESGGGLVQAGGSLRVSCAASGGTFSSTAMGWFRQAPGKEREFVAAISWSGGYTYYADSVRGRFTISRDNALNTVSLQMNSLKPEDTAVYYCAADISGLDTVAAGIFTEPNIDYWGKGTLVTVSS
B12: phage clone No. 27 (C27) (VHH)
VHH: QLQLVESGGGLVQPGGSLRLSCVVSGSIFAINTMGWYRQAPGKQRELVATMHSGGSTNYADSVKGRFTISRDAAPKTVYLQMNSLKPADTAVYYCHADDSGWGTVDSWGQGIQVTVSS
B13: phage clone No. 55 (S7) (VHH)
VHH: QLQLVESGGGLVQPGGSLRLSCAASGSIFSINGMGWYRQAPGKQREAVAVITSGGKIDYLDSVKGRFTISRDSAKNTVALQMNSLKPEDTAVYYCNAYGDVRRGEVRWGQGTQVTVSS
B14: phage clone No. 71 (S23) (VHH)
VHH: B13 VHH with L2V, A47L, V50A, I57T, R102Q
B15: phage clone No. 46 (C46) (VHH)
VHH: QVQLVESGGGLVQAGGSLRLSCAASGVTFDDLAIGWFRQVPGKGREGVSTIGTSDGTAYYADSVKGRFTISSDNAKNTVYLQMNSLKPEDTAVYYCAVDLDYGLGSLLPMGYDYWGQGTQVTVSS
B16: phage clone No. 29 (C29) (VHH)
VHH: QVQLVESGGGLVQAGGSLRLSCVASGFTSDDYVIGWFRQAPGKEREGVSCISSSDGTTNYADSVKGRFTISSDNAKNTVYLQMNSLKPEDTAVYYCAADPMRVCPYSGTYYGILGFGTSGQGTQVTVSS
B17: phage clone No. 54 (S6) (VHH)
VHH: QVQLVESGGGLVQPGGSLRLSCAVSGTIFSINTMGWYRQVPGKQRELVATITSSGSTKYADSVKGRFTVSRDNAKRTVFLQMDSLKPEDTAVYYCHANDVGWGTVNAWGQGTLVTVSS
B18: phage clone No. 77 (S29) (VHH)
VHH: QLQLVESGGGLVQPGGSLRLSCTASGIIFSINTMGWYRQAPGKQRELVADISSFGSTNYADSVKGRFTISRDNAKNSVYLQMNSLKPEDTAVYYCNAHDKGWGTVDSWGQGTQVTVSS

Each binder was assayed against Fc protein (assay: phage ELISA on coated Fc protein).

Which OD450 does the source give for B1 here?
Its OD450 is 0.133.

B2 was tested. Which OD450 did it give?
The OD450 was 0.11.

For B3, which OD450 is on record?
The OD450 was 0.111.

Which OD450 does the source give for B4 here?
The OD450 was 0.149.

Which OD450 does the source give for B5 here?
Its OD450 is 0.083.

Which OD450 does the source give for B6 here?
Its OD450 is 0.059.

Which OD450 does the source give for B7 here?
The OD450 was 0.103.

Which OD450 does the source give for B8 here?
The OD450 was 0.094.

With B9 as the binder, how does the OD450 read?
Its OD450 is 0.115.

How did the OD450 turn out when B10 was run?
Its OD450 is 0.081.

How did the OD450 turn out when B11 was run?
Its OD450 is 0.068.

With B12 as the binder, how does the OD450 read?
The OD450 was 0.084.

Which OD450 does the source give for B13 here?
Its OD450 is 0.059.

B14 was tested. Which OD450 did it give?
The OD450 was 0.093.

For B15, which OD450 is on record?
The OD450 was 0.081.

For B16, which OD450 is on record?
The OD450 was 0.115.

Which OD450 does the source give for B17 here?
Its OD450 is 0.058.

B18 was tested. Which OD450 did it give?
Its OD450 is 0.08.
